Assay results: patent US9814672B2, “Echogenic vehicle for clinical delivery of plasminogen activator and other fibrin-binding therapeutics to thrombi” (priority 2007, dated 2017)

What was measured:
fibrin = biological target: T1, fibrin (Homo sapiens, UniProt P02671+P02675+P02679); test: Solid-phase fibrin-tPA activity assay (SOFIA-tPA), Scatchard analysis; conditions: 37° C., read-out: KD of fibrin binding
T1 construct: purchased Calbiochem (EMD Biosciences, Inc., La Jolla, Calif.)
T1 sequence (P02671 36-629 limits assumed): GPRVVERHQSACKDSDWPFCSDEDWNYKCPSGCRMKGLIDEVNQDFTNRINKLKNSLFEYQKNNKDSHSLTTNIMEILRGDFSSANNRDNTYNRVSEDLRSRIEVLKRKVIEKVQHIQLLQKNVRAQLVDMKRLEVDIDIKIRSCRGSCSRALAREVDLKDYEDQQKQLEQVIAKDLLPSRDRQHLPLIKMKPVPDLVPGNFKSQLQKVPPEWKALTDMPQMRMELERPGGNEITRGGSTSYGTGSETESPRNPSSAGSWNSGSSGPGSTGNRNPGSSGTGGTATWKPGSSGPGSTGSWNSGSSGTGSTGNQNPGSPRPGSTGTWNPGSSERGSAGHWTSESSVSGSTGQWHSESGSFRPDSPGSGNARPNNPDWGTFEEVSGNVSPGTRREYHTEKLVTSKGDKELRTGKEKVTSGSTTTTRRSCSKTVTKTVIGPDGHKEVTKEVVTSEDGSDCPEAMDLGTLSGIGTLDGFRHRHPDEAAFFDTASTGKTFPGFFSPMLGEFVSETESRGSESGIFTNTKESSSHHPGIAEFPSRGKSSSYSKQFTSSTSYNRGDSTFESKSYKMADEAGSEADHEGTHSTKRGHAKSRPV
T1 sequence (P02675 45-491 limits assumed): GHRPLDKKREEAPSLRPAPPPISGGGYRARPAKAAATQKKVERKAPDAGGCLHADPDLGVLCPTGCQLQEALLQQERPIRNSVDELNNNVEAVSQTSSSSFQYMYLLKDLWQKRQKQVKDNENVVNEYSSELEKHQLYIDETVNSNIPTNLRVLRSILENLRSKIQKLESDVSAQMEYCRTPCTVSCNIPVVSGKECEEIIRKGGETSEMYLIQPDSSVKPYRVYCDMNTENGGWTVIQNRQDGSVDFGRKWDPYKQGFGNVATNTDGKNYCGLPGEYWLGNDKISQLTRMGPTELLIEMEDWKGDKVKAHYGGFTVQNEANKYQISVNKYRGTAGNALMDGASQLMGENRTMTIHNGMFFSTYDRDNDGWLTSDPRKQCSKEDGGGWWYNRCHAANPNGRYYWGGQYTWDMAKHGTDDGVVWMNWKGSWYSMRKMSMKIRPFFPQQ
T1 sequence (P02679 27-437 isoform P02679-2 limits assumed): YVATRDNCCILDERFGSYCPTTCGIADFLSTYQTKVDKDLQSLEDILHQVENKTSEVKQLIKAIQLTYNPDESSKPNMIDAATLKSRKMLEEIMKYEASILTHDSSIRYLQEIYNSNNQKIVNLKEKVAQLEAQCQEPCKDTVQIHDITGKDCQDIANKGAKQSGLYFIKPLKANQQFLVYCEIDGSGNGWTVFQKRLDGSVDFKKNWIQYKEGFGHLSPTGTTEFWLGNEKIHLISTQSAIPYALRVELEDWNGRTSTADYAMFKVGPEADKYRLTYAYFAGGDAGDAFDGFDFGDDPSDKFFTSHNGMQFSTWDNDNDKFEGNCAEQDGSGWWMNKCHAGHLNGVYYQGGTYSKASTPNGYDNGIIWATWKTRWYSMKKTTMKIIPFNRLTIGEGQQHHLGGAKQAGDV
Description: tPA-binding to fibrin was tested using a modification of the solid-phase fibrin-tPA activity assay (SOFIAtPA) developed by Angles-Cano (1986). This method combines a quantitative enzyme-linked immunosorbent assay (ELISA) technique, which enables calculation of ligand binding affinities, with a chromogenic measurement of enzyme specific activity. The latter provides quantitation of tPA bound to fibrin in the microtiter well, which permits the determination of binding affinities and immobilized fibrin concentration by classic Scatchard analysis.
Nunc Maxisorb microtiter plates were coated overnight at 4° C. with human fibrinogen (Calbiochem; 2.5.tg in 50 p.l 0.05 M sodium bicarbonate, pH 9.6, per well). Background wells were left uncoated. […]
About 200 μl of substrate-zymogen reagent (0.33 μM plasminogen+0.33 mM D-Val-Leu-Lys-p-nitroanilide in 0.02 M PBS, pH 7.3, with 0.1 M sodium chloride) was added to each sample well and to 12 additional wells (standard wells). […] The plates were then read at 405 nm in a Coulter microplate reader. Based on the response of the standards and the net OD of samples corrected for background absorbance in albumin-coated wells, concentrations of bound active tPA were calculated; Scatchard analyses were then performed and binding affinities determined.

fibrinogen αC domains = biological target: T2, fibrinogen αC domains (Homo sapiens, UniProt P02671); conditions: Tsurupa and Medved 2001; cited from earlier work
T2 sequence (P02671 240-629 limits assumed): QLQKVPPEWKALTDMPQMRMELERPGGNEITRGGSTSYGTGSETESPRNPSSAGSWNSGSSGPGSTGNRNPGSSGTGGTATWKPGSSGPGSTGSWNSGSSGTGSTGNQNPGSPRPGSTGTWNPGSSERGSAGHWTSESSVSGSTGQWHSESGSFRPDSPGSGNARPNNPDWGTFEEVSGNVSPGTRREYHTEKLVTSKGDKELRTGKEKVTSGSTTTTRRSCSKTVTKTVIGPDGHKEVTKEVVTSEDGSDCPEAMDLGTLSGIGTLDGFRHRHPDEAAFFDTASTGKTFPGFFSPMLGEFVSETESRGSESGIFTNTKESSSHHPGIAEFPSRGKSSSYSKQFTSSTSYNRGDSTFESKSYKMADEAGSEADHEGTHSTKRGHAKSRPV

occluded femoral artery = conditions: tPA infusion with transcutaneous ultrasound; cited from earlier work

tPA: Recombinant tissue-plasminogen activator (Activase®, Genentech Inc.), used as the thrombolytic agent [reference compound]
Kd (fibrin): 2.61 nM
Kd (fibrinogen αC domains): 33 ± 5 nM
decrease in time for recanalization (occluded femoral artery): 80%
